The source of these data is patent US20250368978A1, “SQUALENE HOPENE CYCLASE VARIANTS FOR PRODUCING SCLAREOLIDE” (INTERNATIONAL FLAVORS & FRAGRANCES INC., priority 2022, published 2025).

The test can be described thus: SHC variant screening reactions: conversion of HFA to sclareolide by freeze-dried whole cells, GC analysis. It counts as biochemical, Gluconobacter morbifer. The settings on record: for Fold improvement (sclareolide production): 10 mg/mL HFA, 100% enzyme loading, based on % peak area, relative to V45L+Q54E+I278T+T326S variant, no metal ions; for Fold improvements (sclareolide production): 20 mg/mL HFA, 50% enzyme loading, relative to initial mutant. As to the method: SHC Variant Enzyme Expression. Wild-type and the GmSHC variants of Table 5 were individually cloned into pET28a(+). These DNA constructs were transformed into Lemo21 (DE3) E. coli and plated onto agar plates containing Kanamycin. These were incubated overnight at 37° C. A single bacterial colony was picked and used to inoculate 10 mL LB+Kanamycin in a 50 mL falcon tube. This primary culture was incubated overnight at 37° C. with agitation. These cultures (10 mL) were used to inoculate 1L LB+Kanamycin in a shake flask, which was subsequently incubated at 37° C. at 180 rpm for about 4 hours. Protein expression was then induced with the addition of 0.4 mM IPTG and 0.2 mM L-rhamnose. The incubator temperature was lowered to 25° C. and the cultures further incubated at 180 rpm overnight. The next day, the cultures were centrifuged at 4000 rpm for 10 minutes and the supernatant discarded. Cell pellets were resuspended in 0.1 M Potassium phosphate buffer pH 7.4 and exposed to 1 round of freeze/thawing before lyophilization and then use in the reaction assay.
SHC Variant Screening Reactions. Sodium citrate buffer 0.2 M, pH 5 was prepared and 500 μL of this buffer was added to freeze-dried whole cells of each variant (from 1 L shake flask fermentation of E. coli transformed with desired variant plasmid). The results were obtained with an enzyme loading of 50% (w/w). Subsequently, HFA (20 mg/mL) was added to the buffer/enzyme mix. The reactions were incubated at 25° C. with agitation for 72 hours. To stop the reaction and extract the products, a 2X volume of 3:2, heptane: isopropanol was added to each reaction. These were then incubated at 37° C. for 30 minutes with agitation to mix thoroughly. The reactions were centrifuged for 10 minutes at 4000 rpm to pellet any cellular material. The upper organic layer was then removed and placed in a clean gas chromatography (GC) vial.
GC Analysis Method. A GC analytical method was used to detect each of the starting materials and products used in the screening reactions. Due to the volume of samples generated, a fast method was developed with a run time of only 4.5 minutes.
No metal ions were included in the reaction.
Further analysis was conducted to identify one or more optimal SHC enzymes. In particular, substrate loading was increased to 20 mg/mL and incubation with a reduced enzyme loading (50%).

B1: V45L + Q54E + V222Q + R249R + I278T + T326S: GmSHC variant with these substitutions relative to SEQ ID NO: 2 (protein)
chain: MSPADISTKSSSFQRLDNMLPEAVSSACDWLIDQQKPDGHWVGPLESNACMEAEWCLALWFLGQEDHPLRPRLAQALLEMQREDGSWGIYVGADHGDINTTVEAYAALRSMGYAADMPIMAKSAAWIQQKGGLRNVRVFTRYWLALIGEWPWDKTPNLPPEIIWLPDNFIFSIYNFAQWARATMMPLTILSARRPSRPLLPENRLDGLFPEGRENFDYELPQKGEEDLWGRFFRAADKGLHSLQSFPVRRFVPREAAIRHVIEWIIRHQDADGGWGGTQPPWIYGLMALSVEGYPLHHPVLAKAMDALNDPGWRRDKGDASWIQASNSPVWDTMLAVLALHDAGAEDRYSPQMDKAIGWLLDRQVRVKGDWSIKLPDTEPGGWAFEYANDKYPDTDDTAVALIALAGCRHRPEWRERDIEGAISRGVNWLLAMQSSSGGWGAFDKDNNRSILTKIPFCDFGEALDPPSVDVTAHVLEAFGLLGISRNHPSVQKALAYIRSEQERNGAWFGRWGVNYVYGTGAVLPALAAIGEDMTQPYIVRACDWLMSVQQENGGWGESCASYMDINAVGHGVATASQTAWALIGLLAAKRPKDREAIARGCQFLIERQEDGSWTEEEYTGTGFPGYGVGQAIKLDDPSLPDRLLQGAELSRAFMLRYDLYRQYFPVMALSRARRMMKEDASAAA
modifications: Gluconobacter morbifer
Turning to B1, the “Fold improvement (sclareolide production)” value is listed as 3.9 Fold and the “Fold improvements (sclareolide production)” value (from here on “Fold improvements”) is recorded as 30.3 Fold.

B2: V45L + Q54E + R249R + I278T + T326S + A574A: GmSHC variant with these substitutions relative to SEQ ID NO: 2 (protein)
chain: MSPADISTKSSSFQRLDNMLPEAVSSACDWLIDQQKPDGHWVGPLESNACMEAEWCLALWFLGQEDHPLRPRLAQALLEMQREDGSWGIYVGADHGDINTTVEAYAALRSMGYAADMPIMAKSAAWIQQKGGLRNVRVFTRYWLALIGEWPWDKTPNLPPEIIWLPDNFIFSIYNFAQWARATMMPLTILSARRPSRPLLPENRLDGLFPEGRENFDYELPVKGEEDLWGRFFRAADKGLHSLQSFPVRRFVPREAAIRHVIEWIIRHQDADGGWGGTQPPWIYGLMALSVEGYPLHHPVLAKAMDALNDPGWRRDKGDASWIQASNSPVWDTMLAVLALHDAGAEDRYSPQMDKAIGWLLDRQVRVKGDWSIKLPDTEPGGWAFEYANDKYPDTDDTAVALIALAGCRHRPEWRERDIEGAISRGVNWLLAMQSSSGGWGAFDKDNNRSILTKIPFCDFGEALDPPSVDVTAHVLEAFGLLGISRNHPSVQKALAYIRSEQERNGAWFGRWGVNYVYGTGAVLPALAAIGEDMTQPYIVRACDWLMSVQQENGGWGESCASYMDINAVGHGVATASQTAWALIGLLAAKRPKDREAIARGCQFLIERQEDGSWTEEEYTGTGFPGYGVGQAIKLDDPSLPDRLLQGAELSRAFMLRYDLYRQYFPVMALSRARRMMKEDASAAA
modifications: Gluconobacter morbifer
Regarding B2, the “Fold improvements” value came out at 27 Fold.

B3: V45L + Q54E + R249R + I278A + T326S: GmSHC variant with these substitutions relative to SEQ ID NO: 2 (protein)
chain: MSPADISTKSSSFQRLDNMLPEAVSSACDWLIDQQKPDGHWVGPLESNACMEAEWCLALWFLGQEDHPLRPRLAQALLEMQREDGSWGIYVGADHGDINTTVEAYAALRSMGYAADMPIMAKSAAWIQQKGGLRNVRVFTRYWLALIGEWPWDKTPNLPPEIIWLPDNFIFSIYNFAQWARATMMPLTILSARRPSRPLLPENRLDGLFPEGRENFDYELPVKGEEDLWGRFFRAADKGLHSLQSFPVRRFVPREAAIRHVIEWIIRHQDADGGWGGAQPPWIYGLMALSVEGYPLHHPVLAKAMDALNDPGWRRDKGDASWIQASNSPVWDTMLAVLALHDAGAEDRYSPQMDKAIGWLLDRQVRVKGDWSIKLPDTEPGGWAFEYANDKYPDTDDTAVALIALAGCRHRPEWRERDIEGAISRGVNWLLAMQSSSGGWGAFDKDNNRSILTKIPFCDFGEALDPPSVDVTAHVLEAFGLLGISRNHPSVQKALAYIRSEQERNGAWFGRWGVNYVYGTGAVLPALAAIGEDMTQPYIVRACDWLMSVQQENGGWGESCASYMDINAVGHGVATASQTAWALIGLLAAKRPKDREAIARGCQFLIERQEDGSWTEEEYTGTGFPGYGVGQAIKLDDPSLPDRLLQGAELSRAFMLRYDLYRQYFPVMALSRARRMMKEDASAAA
modifications: Gluconobacter morbifer
In the case of B3, the “Fold improvements” value was determined as 25.6 Fold.

B4: V45L + Q54E + R249R + I278T + T326S: GmSHC variant with these substitutions relative to SEQ ID NO: 2; R249R is a silent mutation (protein)
chain: MSPADISTKSSSFQRLDNMLPEAVSSACDWLIDQQKPDGHWVGPLESNACMEAEWCLALWFLGQEDHPLRPRLAQALLEMQREDGSWGIYVGADHGDINTTVEAYAALRSMGYAADMPIMAKSAAWIQQKGGLRNVRVFTRYWLALIGEWPWDKTPNLPPEIIWLPDNFIFSIYNFAQWARATMMPLTILSARRPSRPLLPENRLDGLFPEGRENFDYELPVKGEEDLWGRFFRAADKGLHSLQSFPVRRFVPREAAIRHVIEWIIRHQDADGGWGGTQPPWIYGLMALSVEGYPLHHPVLAKAMDALNDPGWRRDKGDASWIQASNSPVWDTMLAVLALHDAGAEDRYSPQMDKAIGWLLDRQVRVKGDWSIKLPDTEPGGWAFEYANDKYPDTDDTAVALIALAGCRHRPEWRERDIEGAISRGVNWLLAMQSSSGGWGAFDKDNNRSILTKIPFCDFGEALDPPSVDVTAHVLEAFGLLGISRNHPSVQKALAYIRSEQERNGAWFGRWGVNYVYGTGAVLPALAAIGEDMTQPYIVRACDWLMSVQQENGGWGESCASYMDINAVGHGVATASQTAWALIGLLAAKRPKDREAIARGCQFLIERQEDGSWTEEEYTGTGFPGYGVGQAIKLDDPSLPDRLLQGAELSRAFMLRYDLYRQYFPVMALSRARRMMKEDASAAA
modifications: Gluconobacter morbifer
notes: R249R is a silent mutation
Regarding B4, the “Fold improvement (sclareolide production)” value was determined as 4.2 Fold and the “Fold improvements” value was determined as 7 Fold.

B5: V45L + Q54E + V222K + I278A + T326S: GmSHC variant with these substitutions relative to SEQ ID NO: 2 (protein)
chain: MSPADISTKSSSFQRLDNMLPEAVSSACDWLIDQQKPDGHWVGPLESNACMEAEWCLALWFLGQEDHPLRPRLAQALLEMQREDGSWGIYVGADHGDINTTVEAYAALRSMGYAADMPIMAKSAAWIQQKGGLRNVRVFTRYWLALIGEWPWDKTPNLPPEIIWLPDNFIFSIYNFAQWARATMMPLTILSARRPSRPLLPENRLDGLFPEGRENFDYELPKKGEEDLWGRFFRAADKGLHSLQSFPVRRFVPREAAIRHVIEWIIRHQDADGGWGGAQPPWIYGLMALSVEGYPLHHPVLAKAMDALNDPGWRRDKGDASWIQASNSPVWDTMLAVLALHDAGAEDRYSPQMDKAIGWLLDRQVRVKGDWSIKLPDTEPGGWAFEYANDKYPDTDDTAVALIALAGCRHRPEWRERDIEGAISRGVNWLLAMQSSSGGWGAFDKDNNRSILTKIPFCDFGEALDPPSVDVTAHVLEAFGLLGISRNHPSVQKALAYIRSEQERNGAWFGRWGVNYVYGTGAVLPALAAIGEDMTQPYIVRACDWLMSVQQENGGWGESCASYMDINAVGHGVATASQTAWALIGLLAAKRPKDREAIARGCQFLIERQEDGSWTEEEYTGTGFPGYGVGQAIKLDDPSLPDRLLQGAELSRAFMLRYDLYRQYFPVMALSRARRMMKEDASAAA
modifications: Gluconobacter morbifer
Turning to B5, the “Fold improvements” value amounted to 20.4 Fold.

B6: V45L + Q54E + V222K + R249R + I278T + T326S: GmSHC variant with these substitutions relative to SEQ ID NO: 2 (protein)
chain: MSPADISTKSSSFQRLDNMLPEAVSSACDWLIDQQKPDGHWVGPLESNACMEAEWCLALWFLGQEDHPLRPRLAQALLEMQREDGSWGIYVGADHGDINTTVEAYAALRSMGYAADMPIMAKSAAWIQQKGGLRNVRVFTRYWLALIGEWPWDKTPNLPPEIIWLPDNFIFSIYNFAQWARATMMPLTILSARRPSRPLLPENRLDGLFPEGRENFDYELPKKGEEDLWGRFFRAADKGLHSLQSFPVRRFVPREAAIRHVIEWIIRHQDADGGWGGTQPPWIYGLMALSVEGYPLHHPVLAKAMDALNDPGWRRDKGDASWIQASNSPVWDTMLAVLALHDAGAEDRYSPQMDKAIGWLLDRQVRVKGDWSIKLPDTEPGGWAFEYANDKYPDTDDTAVALIALAGCRHRPEWRERDIEGAISRGVNWLLAMQSSSGGWGAFDKDNNRSILTKIPFCDFGEALDPPSVDVTAHVLEAFGLLGISRNHPSVQKALAYIRSEQERNGAWFGRWGVNYVYGTGAVLPALAAIGEDMTQPYIVRACDWLMSVQQENGGWGESCASYMDINAVGHGVATASQTAWALIGLLAAKRPKDREAIARGCQFLIERQEDGSWTEEEYTGTGFPGYGVGQAIKLDDPSLPDRLLQGAELSRAFMLRYDLYRQYFPVMALSRARRMMKEDASAAA
modifications: Gluconobacter morbifer
B6: the “Fold improvements” value is 33.2 Fold.
